Data reported in patent publication US20230220589A1.

Assays:
[1] = biological target: M44-modified P NTAA target peptides; assay: encoding assay; P2 S;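 also: fraction of recording tags encoded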
[2] = biological target: M44-modified N NTAA target peptides; assay: encoding assay; P2 A
[3] = biological target: M44-modified I NTAA target peptides (M44-I-P2-peptide); assay: encoding assay; P2 A
[4] = biological target: M44-modified Y NTAA target peptides (M44-Y-P2-peptide); assay: encoding assay; P2 A;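 also: fraction of recording tags encoded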
[5] = biological target: M44-modified L NTAA target peptides (M44-L-P2-peptide); assay: encoding assay; P2 A;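 also: fraction of recording tags encoded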
[6] = biological target: M44-modified W NTAA target peptides; assay: encoding assay; P2 A;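 also: fraction of recording tags encoded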
[7] = biological target: M44-modified Q NTAA target peptides; assay: encoding assay; P2 A
[8] = biological target: M44-modified V NTAA target peptides; assay: encoding assay; P2 A;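 also: fraction of recording tags encoded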
[9] = biological target: M44-modified G NTAA target peptides (M44-G-P2-peptide); assay: encoding assay; P2 A;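 also: fraction of recording tags encoded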
[10] = biological target: M44-modified H NTAA target peptides; assay: encoding assay; P2 A
[11] = biological target: M44-modified A NTAA target peptides (M44-A-P2-peptide); assay: encoding assay; P2 A
[12] = biological target: M44-modified N NTAA target peptides; assay: encoding assay; P2 F
[13] = biological target: M44-modified S NTAA target peptides; assay: encoding assay; P2 F
[14] = biological target: M44-modified I NTAA target peptides (M44-I-P2-peptide); assay: encoding assay; P2 F
[15] = biological target: M44-modified P NTAA target peptides; assay: encoding assay; P2 F;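 also: fraction of recording tags encoded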
[16] = biological target: M44-modified M NTAA target peptides; assay: encoding assay; P2 F
[17] = biological target: M44-modified Y NTAA target peptides (M44-Y-P2-peptide); assay: encoding assay; P2 F;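 also: fraction of recording tags encoded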
[18] = biological target: M44-modified L NTAA target peptides (M44-L-P2-peptide); assay: encoding assay; P2 F;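 also: fraction of recording tags encoded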
[19] = biological target: M44-modified F NTAA target peptides (M44-F-P2-peptide); assay: encoding assay; P2 F;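 also: fraction of recording tags encoded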
[20] = biological target: M44-modified D NTAA target peptides; assay: encoding assay; P2 F;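 also: fraction of recording tags encoded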
[21] = biological target: M44-modified W NTAA target peptides; assay: encoding assay; P2 F;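 also: fraction of recording tags encoded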
[22] = biological target: M44-modified Q NTAA target peptides; assay: encoding assay; P2 F
[23] = biological target: M44-modified V NTAA target peptides; assay: encoding assay; P2 F;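 also: fraction of recording tags encoded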
[24] = biological target: M44-modified E NTAA target peptides; assay: encoding assay; P2 F;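 also: fraction of recording tags encoded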
[25] = biological target: M44-modified G NTAA target peptides (M44-G-P2-peptide); assay: encoding assay; P2 F;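 also: fraction of recording tags encoded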
[26] = biological target: M44-modified H NTAA target peptides; assay: encoding assay; P2 F
[27] = biological target: M44-modified A NTAA target peptides (M44-A-P2-peptide); assay: encoding assay; P2 F
[28] = biological target: M44-modified T NTAA target peptides; assay: encoding assay; P2 F
[29] = biological target: M44-modified N NTAA target peptides; assay: encoding assay; P2 N
[30] = biological target: M44-modified S NTAA target peptides; assay: encoding assay; P2 N
[31] = biological target: M44-modified I NTAA target peptides (M44-I-P2-peptide); assay: encoding assay; P2 N
[32] = biological target: M44-modified M NTAA target peptides; assay: encoding assay; P2 N
[33] = biological target: M44-modified Y NTAA target peptides (M44-Y-P2-peptide); assay: encoding assay; P2 N;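 also: fraction of recording tags encoded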
[34] = biological target: M44-modified L NTAA target peptides (M44-L-P2-peptide); assay: encoding assay; P2 N;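 also: fraction of recording tags encoded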
[35] = biological target: M44-modified F NTAA target peptides (M44-F-P2-peptide); assay: encoding assay; P2 N;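 also: fraction of recording tags encoded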
[36] = biological target: M44-modified D NTAA target peptides; assay: encoding assay; P2 N;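 also: fraction of recording tags encoded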
[37] = biological target: M44-modified W NTAA target peptides; assay: encoding assay; P2 N;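 also: fraction of recording tags encoded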
[38] = biological target: M44-modified Q NTAA target peptides; assay: encoding assay; P2 N
[39] = biological target: M44-modified V NTAA target peptides; assay: encoding assay; P2 N;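 also: fraction of recording tags encoded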
[40] = biological target: M44-modified E NTAA target peptides; assay: encoding assay; P2 N;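 also: fraction of recording tags encoded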
[41] = biological target: M44-modified H NTAA target peptides; assay: encoding assay; P2 N
[42] = biological target: M44-modified N NTAA target peptides; assay: encoding assay; P2 M
[43] = biological target: M44-modified I NTAA target peptides (M44-I-P2-peptide); assay: encoding assay; P2 M
[44] = biological target: M44-modified P NTAA target peptides; assay: encoding assay; P2 M;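 also: fraction of recording tags encoded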
[45] = biological target: M44-modified M NTAA target peptides; assay: encoding assay; P2 M
[46] = biological target: M44-modified Y NTAA target peptides (M44-Y-P2-peptide); assay: encoding assay; P2 M;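 also: fraction of recording tags encoded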
[47] = biological target: M44-modified L NTAA target peptides (M44-L-P2-peptide); assay: encoding assay; P2 M;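 also: fraction of recording tags encoded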
[48] = biological target: M44-modified F NTAA target peptides (M44-F-P2-peptide); assay: encoding assay; P2 M;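 also: fraction of recording tags encoded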
[49] = biological target: M44-modified V NTAA target peptides; assay: encoding assay; P2 M;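 also: fraction of recording tags encoded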
[50] = biological target: M44-modified E NTAA target peptides; assay: encoding assay; P2 M;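 also: fraction of recording tags encoded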
[51] = biological target: M44-modified T NTAA target peptides; assay: encoding assay; P2 M

B1: engineered M44-A binder (SEQ ID NO: 42) (designed binder, not shown: small tags and cut ends; large carriers)
chain: QVSVQPNFQQDKFLGRWFVAGLASNSSWDREKVAALSGAKMVVAPATDGGLNVTRTMLRKNQCETYTGLLQPAGSLGSYSWRSPHPGSTGSESVVETDYDQYALVYGQGSKGPGEDLRAAALWSRTQTPRAELKEKFTAFSKAQGFTEDTIVFLPQTDKCMTEQ
- encoding yield [1]: 0.01
- encoding yield [2]: 0.02
- encoding yield [3]: 0.05
- encoding yield [4]: 0.03
- encoding yield [5]: 0.04
- encoding yield [6]: 0.03
- encoding yield [7]: 0.03
- encoding yield [8]: 0.03
- encoding yield [9]: 0.04
- encoding yield [10]: 0.01
- encoding yield [11]: 0.11
- encoding yield [12]: 0.03
- encoding yield [13]: 0.18
- encoding yield [14]: 0.07
- encoding yield [15]: 0.02
- encoding yield [16]: 0.09
- encoding yield [17]: 0.05
- encoding yield [18]: 0.05
- encoding yield [19]: 0.03
- encoding yield [20]: 0.03
- encoding yield [21]: 0.03
- encoding yield [22]: 0.03
- encoding yield [23]: 0.13
- encoding yield [24]: 0.04
- encoding yield [25]: 0.1
- encoding yield [26]: 0.04
- encoding yield [27]: 0.31
- encoding yield [28]: 0.25
- encoding yield [29]: 0.05
- encoding yield [30]: 0.05
- encoding yield [31]: 0.03
- encoding yield [32]: 0.02
- encoding yield [33]: 0.05
- encoding yield [34]: 0.04
- encoding yield [35]: 0
- encoding yield [36]: 0.02
- encoding yield [37]: 0.01
- encoding yield [38]: 0.04
- encoding yield [39]: 0.08
- encoding yield [40]: 0.03
- encoding yield [41]: 0.03
- encoding yield [42]: 0.02
- encoding yield [43]: 0.15
- encoding yield [44]: 0.03
- encoding yield [45]: 0.02
- encoding yield [46]: 0.03
- encoding yield [47]: 0
- encoding yield [48]: 0.04
- encoding yield [49]: 0.12
- encoding yield [50]: 0.03
- encoding yield [51]: 0.21

B2: engineered M44-L binder (SEQ ID NO: 21) (designed binder, not shown: small tags and cut ends; large carriers)
chain: QVSVQPNFQQDKFLGRWFYAGHASNSSWYREKVAALSMAKLVVAPATDGGLNATETFLRKNQCETITSLLQPAGSLGSYSSRSPHGGSTWSTSVVETDYDQYALLYLQGSKGPGEDFRGAILASRTQTPRAELKEKFTAFSKAQGFTEDTIVFLPQTDKCMTEQ
- encoding yield [1]: 0.01
- encoding yield [2]: 0.01
- encoding yield [3]: 0.29
- encoding yield [4]: 0.01
- encoding yield [5]: 0.19
- encoding yield [6]: 0.01
- encoding yield [7]: 0.01
- encoding yield [8]: 0.01
- encoding yield [9]: 0.01
- encoding yield [10]: 0.01
- encoding yield [11]: 0.01
- encoding yield [12]: 0.01
- encoding yield [13]: 0.01
- encoding yield [14]: 0.07
- encoding yield [15]: 0.01
- encoding yield [16]: 0.05
- encoding yield [17]: 0.02
- encoding yield [18]: 0.06
- encoding yield [19]: 0.01
- encoding yield [20]: 0.01
- encoding yield [21]: 0.02
- encoding yield [22]: 0.01
- encoding yield [23]: 0.01
- encoding yield [24]: 0.01
- encoding yield [25]: 0.02
- encoding yield [26]: 0.02
- encoding yield [27]: 0.01
- encoding yield [28]: 0.02
- encoding yield [29]: 0.01
- encoding yield [30]: 0.01
- encoding yield [31]: 0.09
- encoding yield [32]: 0.02
- encoding yield [33]: 0.01
- encoding yield [34]: 0.16
- encoding yield [35]: 0
- encoding yield [36]: 0.01
- encoding yield [37]: 0.01
- encoding yield [38]: 0.01
- encoding yield [39]: 0.03
- encoding yield [40]: 0.01
- encoding yield [41]: 0.01
- encoding yield [42]: 0.01
- encoding yield [43]: 0.1
- encoding yield [44]: 0.01
- encoding yield [45]: 0
- encoding yield [46]: 0.01
- encoding yield [47]: 0.02
- encoding yield [48]: 0.02
- encoding yield [49]: 0.01
- encoding yield [50]: 0.01
- encoding yield [51]: 0.02

B3: engineered M44-L binder (SEQ ID NO: 31) (designed binder, not shown: small tags and cut ends; large carriers)
chain: QDSTQNLIPAPPLISVPLQPGFWTERFQGRWFLVGFAGNAVQKERQSRLTMQSLILELQEDNSYNITAINVRGQGCRYIISTLVPSSRPGQFTLGNIHSYPQIQSLDVQVADTDYDQFAMVFLQGTSENKQYFEVALAGRTKGLSDELKERFVSFAKSLGLKDNNIVFSVPTDQCIDN
- encoding yield [1]: 0.01
- encoding yield [2]: 0.02
- encoding yield [3]: 0.07
- encoding yield [4]: 0.04
- encoding yield [5]: 0.14
- encoding yield [6]: 0.08
- encoding yield [7]: 0.02
- encoding yield [8]: 0.02
- encoding yield [9]: 0.03
- encoding yield [10]: 0.01
- encoding yield [11]: 0.02
- encoding yield [12]: 0.05
- encoding yield [13]: 0.04
- encoding yield [14]: 0.08
- encoding yield [15]: 0.02
- encoding yield [16]: 0.1
- encoding yield [17]: 0.12
- encoding yield [18]: 0.13
- encoding yield [19]: 0.09
- encoding yield [20]: 0.03
- encoding yield [21]: 0.09
- encoding yield [22]: 0.02
- encoding yield [23]: 0.03
- encoding yield [24]: 0.03
- encoding yield [25]: 0.04
- encoding yield [26]: 0.04
- encoding yield [27]: 0.05
- encoding yield [28]: 0.04
- encoding yield [29]: 0.03
- encoding yield [30]: 0.03
- encoding yield [31]: 0.03
- encoding yield [32]: 0.02
- encoding yield [33]: 0.05
- encoding yield [34]: 0.14
- encoding yield [35]: 0.01
- encoding yield [36]: 0.01
- encoding yield [37]: 0.01
- encoding yield [38]: 0.02
- encoding yield [39]: 0.04
- encoding yield [40]: 0.02
- encoding yield [41]: 0.03
- encoding yield [42]: 0.02
- encoding yield [43]: 0.17
- encoding yield [44]: 0.02
- encoding yield [45]: 0.02
- encoding yield [46]: 0.03
- encoding yield [47]: 0.19
- encoding yield [48]: 0.07
- encoding yield [49]: 0.03
- encoding yield [50]: 0.03
- encoding yield [51]: 0.05
